Test results from patent publication US11034736B2, “Anti-viral cnidarins” (priority 2014, dated 2021).
Where two headings read alike, the source gives them in different places.

Tests used:
[1] = tested on: HIV-1ROJO; experiment: HIV-1 ROJO replication in human PBMC cultures, supernatant reverse transcriptase activity; assay type: cell-based; conditions: T-tropic primary isolate
From the text: (§1) To test the anti-HIV activity of CNID1 against HIV primary isolates in fresh human cells, monocyte-tropic HIV-1 strain Ba-L was obtained from the NIAID AIDS Research and Reference Reagent Program (National Institutes of Health, Bethesda, Md.). The low passage HIV-1 pediatric isolate ROJO was derived as described previously (Buckheit et al., AIDS Res. Hum. Retroviruses, 10: 1497-1506 (1994)). Human peripheral blood mononuclear cells (PBMCs) and macrophages were isolated from hepatitis and HIV seronegative donors following Ficoll-Paque centrifugation as described elsewhere (Gartner & Popovic, Techniques in HIV Research, Aldovini, A. and Walker B., eds., pp. 59-63, Stockton Press, New York, 1990). Antiviral assays were carried out with 3-day-old phytohaemagglutinin/interleukin-2 stimulated PBMCs or 6-day-cultured monocyte/macrophages. […] HIV-1 replication in PBMC (ROJO) or monocyte macrophage (Ba-L) cultures were determined by measurement of reverse transcriptase activity (Buckheit et al., Antiviral Res., 21: 247-265 (1993)) in the supernatants or p24 antigen expression by ELISA (Coulter, Hialeah, Fla.), respectively. Cell viability by formazan dye reduction was determined in replicated cultures using the CellTiter reagent (Promega, Madison, Wis.). […]

[2] = tested on: HIV-1US/92/727; experiment: Anti-HIV evaluation in PHA-stimulated human PBMCs, reverse transcriptase in supernatant; assay type: cell-based; conditions: HIV-1US/92/727, human PBMCs, 7 days
Description: The cultures were incubated for 7 days at 37° C./5% CO2. Efficacy of the compounds was evaluated by measuring the amount of reverse transcriptase in the culture supernatant and toxicity was evaluated using XTT to measure cell viability. AZT was evaluated in parallel as an assay control.

[3] = tested on: HIV-1Ba-L; experiment: HIV-1 Ba-L replication in human primary macrophage cultures, p24 ELISA; assay type: cell-based; conditions: M-tropic, human primary macrophages
From the text: as §1

[4] = target: HIV-1IIIB gp120 (Human immunodeficiency virus type 1 group M subtype B, UniProt P04578)
Description: Additional ELISA studies were performed to assess the effect of monosaccharides on CNID-1 binding to gp120 and gp41. The plates were prepared with native HIV-1IIIB gp120 (Advanced Biotechnologies, Columbia, Md.) or recombinant HIV-1HxB2 gp41 (Vybion Inc., Ithaca, N.Y.), and 100 ng/well rCNID-1-Trx was added in the presence or absence of 1 mM concentrations of the following sugars: glucose, mannose, galactose, fucose, xylose, N-acetylglucosamine (GlcNAc), N-acetylgalactosamine (GalNAc), or 100 ng/well α-acid glycoprotein (to act as a carrier for sialic acid). The plates were then washed and visualized using anti-CNID-1 polyclonal antibodies as above.
Plates to test the effect of sCD4 on CNID-1 binding to gp120 were prepared with recombinant HIV-1IIIB gp120 (Immuno Diagnostics, Woburn, Mass.) at 4° C. overnight (100 ng/well) and blocked as previously described. Serial dilutions of rCNID-1-Trx were added in the presence (test plate) or absence (control plate) of 50 ng/well sCD4 (sCD4-183, 2-domain, NIH AIDS Research & Reference Reagent Program, Germantown, Md.) and incubated for 1 hr. Plates were washed and visualized as above. Plates to test for the effect of CV-N, SVN or GRFT on CNID-1 binding to gp120 were prepared with recombinant HIV-NIIIB gp120 (Immuno Diagnostics, Woburn, Mass.) at 4° C. overnight (100 ng/well) and blocked as previously described. CV-N (100 ng/well), SVN (100 ng/well) or GRFT (130 ng/well) were added (PBST was added to control wells) and incubated for 30 minutes, followed by serial dilutions of rCNID-1-Trx and further incubated for 75 minutes. The plates were then washed and visualized using anti-CNID-1 polyclonal antibodies as previously outlined.
Plates were prepared with recombinant HIV-1IIIIB gp120 (Immuno Diagnostics, Woburn, Mass.) at 4° C. overnight (100 ng/well) and blocked as previously described. rCNID-1-Trx were added: 250 ng/well for sCD4 test plate or 500 ng/well for the GRFT test plate, and PBST (50 μl/well) to the control plate; incubation done for 2 hrs. The plates were washed as before and serial dilutions of sCD4 (sCD4-183, 2-domain, NIH AIDS Research & Reference Reagent Program, Germantown, Md.) or GRFT were added; incubated for 1 hr 10 minutes. Plates were washed as before. Primary antibodies were added at 100 μl/well: mouse anti-CD4 (ProSci Inc., Poway, Calif.) at 1:1000 dilution or rabbit anti-GRFT at 1:500 dilution; incubation done for 1 hr. The plates were washed as before and peroxidase conjugated secondary antibodies (Thermo Fisher Scientific Inc., Rockford, Ill.) were added at 100 μl/well: goat anti-mouse (sCD4 plate) or goat anti-rabbit (GRFT plate) at a 1:1000 dilution; incubation for 1 hr. The plates were then washed and visualized as previously outlined.

[5] = tested on: HIV-1IIIB; experiment: Viral attachment assay, cell-associated p24 antigen in HeLa CD4 LTR β-gal cells; assay type: cell-based
Description: (§2) Attachment and fusion assays were performed in HeLa-CD4-LTR-β-galactosidase cell lines as described previously (Gartner & Popovic, (1990), supra) with the following modifications. Following the interaction of HIV-1IIIIIB with HeLa CD4 LTR β-gal cells, viral attachment to HeLa CD4 LTR β-gal cells was detected as cell-associated p24 antigen following a 1 hour adsorption of virus and vigorous washing for removal of unbound virus. Fusion of HIV-1IIIIB with HeLa CD4 LTR β-gal cells was detected by chemiluminescence using a single-step lysis and detection method (Tropix Gal-screen, Bedford, Mass.) and results reported as EC50 values. Chicago Sky Blue, a polysulfonic acid dye inhibitor of HIV attachment and fusion, was used as a positive control for all assays (Clanton et al., J. Acquired Immune Defic. Syndr., 5: 771-781 (1992)).

[6] = tested on: HeLa CD4 LTR β-galactosidase cells; experiment: Cytotoxicity in the attachment and fusion assays; assay type: cell-based
Description: The HIV reverse transcriptase inhibitor 3′-Azido-3′-deoxythymidine (AZT) was used as a positive control. All assays were carried out in triplicate for all viruses and cells.
as §2

B1: CNID-1: HIV-inhibitory protein from soft coral Synthecium sp.; 172 amino acids, 18,122 Da, SEQ ID NO: 1 (protein)
chain: GRATLGQLKTSTIPPVTFDVPFDGANIPQDVRFTIATVNGGKGALYNAELGESAGHTIVLESDGDHPIPGTFDPKSGRGLDYLPRGLVLFSSHNYVGNMKMYTEPDSDITADFPPGTPFGVSSAITGEGSAFQLNTGIDHTGEFEIIPPNTKRNLAGVFDNEIRSVSPTGGK
Work on B1 yielded an EC50 [1] of 3.97 nM, an EC50 [2] of 0.0427 µg/mL and an EC50 [3] of 1.05 nM. For the same molecule, the “CNID-1 binding to gp120 after CV-N pre-treatment” value ([4]; CV-N 100 ng/well) was “did not affect CNID-1 binding”, the “CNID-1 binding to gp120 after GRFT pretreatment” value ([4]; ELISA) was “reduced CNID-1 binding to gp120” and the “CNID-1 binding to gp120 after pretreatment with sCD4” value ([4]; ELISA) was “did not block CNID-1 binding to gp120”. For the same molecule, the “sCD4 binding to gp120 after pre-treatment with CNID-1” value ([4]; ELISA) was “did not block subsequent binding of sCD4 to gp120”, the “CNID-1 binding to gp120 after SVN pre-treatment” value ([4]; SVN 100 ng/well) was “did not affect CNID-1 binding” and the “GRFT binding to gp120 after pretreatment with CNID-1” value ([4]; rCNID-1 500 ng/well) was “did not inhibit GRFT binding to gp120”. For the same molecule, the “CNID-1 binding to gp120 in presence of α-acid glycoprotein” value ([4]; α-acid glycoprotein as carrier of sialic acid) was “not inhibited”, the “Inhibition of viral attachment to the cell” value [5] was “did not inhibit attachment” and the EC50 ([5]; read-out: Inhibition of Attachment EC50) was over 55.2 nM. The CC50 ([6]; attachment assay, read-out: Inhibition of Attachment CC50) was over 55.2 nM and the CC50 ([6]; fusion assay, read-out: Inhibition of Fusion CC50) was over 55.2 nM.
